Experimental data published in publication PMC1180670.

B1: d(GT)15 (ssDNA)
DNA: GTGTGTGTGTGTGTGTGTGTGTGTGTGTGT

What was measured:
[1] = tested on: S. pombe Translin (Schizosaccharomyces pombe); test: EMSA
[2] = target: recombinant S.pombe Translin (S. pombe); test: glycerol gradient centrifugation
human Translin = human Translin (Homo sapiens, UniProt Q15631 1-228); test: EMSA
Chain of human Translin (Q15631 whole entry): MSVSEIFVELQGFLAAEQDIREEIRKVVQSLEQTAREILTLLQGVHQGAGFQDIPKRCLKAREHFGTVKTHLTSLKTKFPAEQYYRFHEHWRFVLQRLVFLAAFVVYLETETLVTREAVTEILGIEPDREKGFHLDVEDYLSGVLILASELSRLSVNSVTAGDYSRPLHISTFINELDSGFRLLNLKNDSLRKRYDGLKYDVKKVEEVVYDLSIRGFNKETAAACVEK

| Molecule | Kd [1] [nM] | also measured |
| --- | --- | --- |
| GTGTGTGTGTGTGTGTGTGTGTGTGTGTGT [d(GT)15] | 18 | – |
| GUGUGUGUGUGUGUGUGUGUGUGUGUGUGU [(GU)15] | 3 | – |
| recombinant S.pombe Translin (natural protein) | – | stoichiometry N [2]: 8 |
| B1 | – | binding signal (human Translin): ~2 Kd relative to (GU)15 |
